Assay results published in the nanobody polyreactivity screen of Harvey et al. (2022).

test: yeast display, Sf9 membrane polyspecificity reagent, FACS + sequencing; frameworks hold sequencing errors
Method in brief: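 Sorting gates, low and high (top ~1%), were placed on anti-HA fluorescence to track expression and on streptavidin fluorescence to track reagent binding. A clone's polyreactivity label is taken from the gate it came out of. The reagent was 10% biotinylated, detergent-solubilized Sf9 membrane, applied for 1 hour at 4 °C to galactose-induced yeast display cells.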

Sequence	polyreactivity (PSR sort gate)
QVQLVESGGGLVQAGGSLRLSCAASGFTCSQNAMGWYRQAPGKERELVAAITGHGGSTYYADSVKGRFTISRDNAKNTVYLQMNSLKPEDTAVYYCAADVYAVHAPQSDYWTKYDYWGQGTQVTVSS	low polyreactivity
QDQLVESGGGLVQAGGSLRLSCAASGSTFNAYAMGWYRQAPGKERQLVASITKSGGRTYYADSVKRRFTISRDNAKNTVYLQMNRLKPEDSAVYYCAARYVWRSTHHRGSTYDYWGQGTQVTVSS	high polyreactivity
QVQLVESGGCLVQAGGSLRLSCAASGRTFVTYAMRWYRQAPGKERELVAGISRRGGRTYYADSVKGRFTISRDNAKNTVYLQMNSLKPEDTAVYYCAALTYYGSDYWGQGTQVTVSS	high polyreactivity
QVQLVESGGGLVQAGGSLRLSCAASGRIFGKYAMGWYRQAPGKERELVAAIRITGGSTYYADSVKGRFTISRDNAKNTVYLQMNSLKPEDTAVYYCAAVYKYADVIYDYWGQGTQVTVSS	high polyreactivity
QVQLVESGGRLVQAGGSLRISSAASRFILFPYAMGWYRQAPGKERELVAAIRSDDTTNYADSVKGRFTISRDNAKNTVYLQMNSLKPEDTAVYYCATACYSWVSYDYWGQGTQVTVSS	low polyreactivity
QVQLVESGGGLVQAGGSLRLSCAASGSIFSRYAMGWYRQAPGKERELVAAISKSGGTTYYADSVKGRFTISRDNAKNTVYLQMNSLKPEDTAVYYCNAKRYRNGSIGMGYWGQGTQVTVSS	high polyreactivity
QVQLVESGGGLVQAGGSLRLSCAASGNTFPYYAMGWYRQAPGKEREYVATIDRGDGSTYYADSVKGRFTISRDNAKNTVYLQMNSVKPEDTAVYYCAKLRGAFIVPGRGYPIYYYWGQGTQVTVSS	high polyreactivity
QVQLVESGGGLDQAGGSLRLSSAASGFTFERYPMGWDRQAPGKEREMVAAIDWRGVNTYYADSVKGRFTISRHTAKTTVYLQMNSLKPEDTAVYYCNARAYGRYYWGQGTQVTVSS	high polyreactivity
QVQLVESGGGLVQAGGSLRLSCAASGSTFLINAMGWYRQAPGKERELVAAITASGGSTYADSVKGRFTISRDNAKNTVYLQMNSLKPEDTAVYYCAARYFPRHRYYYWGQGTQVTVSS	high polyreactivity
QVQLVESGGGLVQAGGSLRLSCAASGSTFSVYAMGWYRQAPGKERELVAAISSGGTTNYADSVKGRFTISRDNAKNTVYLQMNSLKPEDTAVYYCAAEYDHYPYDYYWGQGTQVTVSS	low polyreactivity
QVQLVESGGGLVQAGGSLRLSCAASGRIFVANAMGWYRQAPGKERELVAAISSSGSTNYADSVKGRFTISRDNAKNTVYLQMNSLKPEDTAVYYCAKQHLSTGSWFDPFEMDYWGQGTQVTVSS	low polyreactivity
QVQLVESGGGLVQAGGSLRLSCAASGSTFTRYAMGWYRQAPGKERELVAAISSSAGRTYYADSVKGRFTISRDYAKNTVYLQMKSLKPEDTAVYYCAATRVYAGAQYDYWGQGTKVTVSS	high polyreactivity
QVQLVESGGGLVQAGGSLRLSCAASGVIFSFYAMGWDREAPGKERELVAAISSSGSTNYADSVKGRFTISRDNAKNTVYLQMNSLKPEDTAVYYCNTYFRYFSFYGRPFDYWGQGTQVTVSS	high polyreactivity
QVQLVESGAGLVQAGGSLRLSCAASGRIFVYNTMGWYRQAPGKEREFVAAITRSGGSTTYADSVKGRFTISRANAKNTVYLQRNSLKPEDTAVYYCAAGPFISYWVSRFGYWGQGTQVTVSS	high polyreactivity
QVQLVESPGRLVQAGGSLRLSCDPTGRTFKIYALGSSRQAPGKESELVAAIRRSGGNTYYADSVKGRFTISRDNAKNTVYLQMNSLKPEDTAVYYCAVGRGSLRGRTDGGYWGQGTQVTVSS	high polyreactivity
QVQHVESGGGLVQAGGSLRLSCAASGRTFVLYTMGWYRQAPGKERELVAAISGSGGRTYYADSVKGRFTISRDNAKNTVYLQMNSLKPEDTAVYYCAAYGQGLPLYGYWGQGTQVTVSS	high polyreactivity
QVQLVESGGGLVQAGGSLRLSCAASGFTFRTYAMGWYRQAPGKERELVAAITGRGSNTYYADSVKGRFTISRDNAKNTVYLQMNSLKPEDTAVYYCNARYYDYRVALRYDYWGQGTQVTVSS	high polyreactivity
QVQLVESGGGLVQAGGSLRLSCAASGRIFTPYAMGWYRQAPVKERELVAVIRDGSTYYADSVKGRFTISRDNAKNTVDLLMNSLKPEDTAVYYCRYDIWVWWSGAYDYWGQGTQVTVSS	low polyreactivity
QVQLVESGGGLVQAGGSLRLSCAASGRIFVGYAMGWYRQAPGKERELVAAISRGGSTNYADSVKGRFTISRDNAKNTVYLQMNSLKPDDTAVYYCAKTYRTRWWGNGGDYWGQGTQVTVSS	high polyreactivity
QVQLVESGGGLVQAGGSLRLSCAASGRIFWGYAMGWYRQAPGKERELVAGITTGGSTKYADSVKGRFTISRDNAKNTVYLQMNSLKPEDTAVYYCAATGKWYHFYHYGYWGQGTQVTVSS	low polyreactivity
QVQLVESGGGLVQAGGSLRLSCAASGLIFYHNAMRWYRQAPGKERELVAAMTASGGSTYYADSVKGRFTISRDNAKNTVYLQMNSLKPEDTAVYYCAADGPLDSDLDYWGQGTQVTVSS	low polyreactivity
QVQLVESGGVLVQAGGSLRLSCAASGRSFGVYAMGWYRQAPGKEMELVAAISEGGGSTNYADSVKGRFTISRDNAKNTVYLQMNSLKPEDTAVYYCAATYRTGVRRYYSWGQGTQVTVSS	low polyreactivity

Sequence	polyreactivity (PSR sort gate)
QVQLVESGGGLVQAGGSLRLSCAASGRTFRYYAMGWYRQAPGKERELVAAIRRGGSTTYADSVKVRFTISRDNAKNTVYLQMNSLKPEDTAVYYCAARYPGTRGDGYWGQGTQVTVSS	high polyreactivity
QVQMQESGGGLVQAGGSLRLICAASGTISVHASMGWYRQAPGKERELVAGITDGANTYYADSVKGRFTISRDNSKNTVYLQMNSLKPEDTAVYYCAAYYGTEVHFTYWGQGTQVTVSS	low polyreactivity
QVQLVESGGGLVQAGGSLRLSCAASGRIFTGNAMGWYRQAPGKERELVAAITGRGGNTYYADSGKGRFTISRDNAKNTVYLLMNSLKPEDTAGYYGAKVFFHTPIVPEYDYWGQGTHVTVSS	low polyreactivity
QVQLVESGGGLVQAGGSLRLSCAASGLIFSHNVMGWYRQAPGKERELVAAISKGGGSTYYADSVKGRFTISRDNAKNTVYLQLNSLIPEDTAVYYCAAPYWSKYRQTEYDYWGQGTQVTVSS	high polyreactivity
QVQLVESRGGLVQAGGSLRLSCAATGSIFFSNTMGWYRQAPGTEREMVAAITSTGTTNYADSVKGRFTISRDNAKKTVYLQMNSLKPEDTAVFYCAVRARRWRYNYWGQGTQVTVSS	high polyreactivity
QVQLVESGGGLVQAGGSLRLICAASGRTSGGNGMGWYRQAPGKERELVAAITWDGDSTYADSVKGRFTISRDNAKNTDYFQMNSLKPEDTAVYYCAAGVYQSDYYYWGQGTQVTVSS	low polyreactivity
QVQLVESGGGLVQAGGSLRLSCAASGSTFKIYAMGWYRQAPGKERELVARITGRGGSTYYADSVKGRFTISRDNAKNTVYLQMNSLKPEDTAVYYCAARVYTYYYDLHKRYYWGQGTQVTVSS	high polyreactivity
QVQLVESGGGLVQAGGSLSLSCAASGSNFNVYVMGWYRQAPGKERELVAAITYRGASTYYADSVKGRFTFSRDNAKNTVYLQMNSLKPEDTAVYYCAARYGYRSVYRSYNSRPYDYWGQGTQVTVSS	high polyreactivity
KVQLVESGGGLVQAGGSLRLSCAASGSIFDYYAMGWYRQAPGKEREFVAAISISGGSTNYADSVKGRFTISRDNAKNTVYLQMNSLKPEDTAVYYCAATSRWSSYGFYVQYNYWGQGSQVTVSS	high polyreactivity
QVQLVESGGGLVQAGGSLRLSCAASGSIFHIYAMGWYRQAPGKERELVAAMTYADSVKGRFTISRDNAKNTVYLQMNSLKPEDTAVYYCNADNWPRIHGSAYDYWGQGTQVTVSS	low polyreactivity
QVQLVESGGGLVQAGGSLRLSCAASGSTFYHYAMGWYRQAPGKERELVAAISTGGSTYYADSVKGRFTISRDNAKNTVYLQMNSLKPEDTAVEYCNARYIGGYGYWGQGTQVTVSS	low polyreactivity
QVQLVESGGGLVQAGGSLRLSCAASGRTFGVYAMGWYRQAPGKERELVAAITGRGGSTYYADSVKGRFTISRDNAKNTVYLQMNSLKAEDTALYYCNAELYEYQSWDDYWGQGTQVTVSS	low polyreactivity
QVQLVQSGGGLVQAGGSLSLICAASGRIFGYYAMGWYRQAPGKERELVDTITFGGGSTYYADSVKGRFTISRDNAKNTVYLQMNSLKPEDTAVYYCAADCGYLGIYGDEYSWGQGTQVTVSS	low polyreactivity
QVQLVESGGGLVQAGGSLRLSCAASGSIFRYYAMGWYRQAPGKERELVASIRRGDSTYYADSVKGRFTISRDNAKNTVYLQMNSLKPEDTAVYYCAARFFWPQRGGYWGQGTQVTVSS	high polyreactivity
QVQLVESGGGLVQAGGSLRLSCAASGFIFTSYAMAWYRQAPGKERELVAAIDYSGGSTYYADSVKGRFTISRDNAKNTVYLQINSLKPEDTAVYYCSAGEGLWPGSQTYDYWGQATQVTVSS	low polyreactivity
QLQLQESGGGLVQAGGSLRLSSAASGTISPLPAMGLYSQATGKERELVPGIDTGAITNYADSVKGRFTISRDNAKHTVYLQMNSLKPEDTAVYYCAVFPAAYDYYERYYTEWGQGTQVTVSS	high polyreactivity
QDQLVESGGGLVQAGGSLRLSCAASGRIFVYYVMGLYRQAPGKERELVAAITYSGGSTYYADSVKGRFTISRDNAKNTVYLQMNSLKPEDTAVYYCNNVDAFGIVRLYYWGQGTQVTVSS	low polyreactivity
QVQLVESGGGLVQAGGSLRLSCAASGFTFSSYAMGWYRQAPGKERELVAAITISGGRTYYADSVKGRFTISRDNAKNTVYLQMNSLKPEDTAVYYCAALYVEGQNHYGYWGQGTQVTVSS	high polyreactivity
QDQLLETGGGLVQAGGSLRLSCAASGSTSLVYAMGWYRQAPGKERELVADISWSGGSTYYTDSVKGRFTISRDNAKNTVYLQMNSLKPEDTAVYYCNGGTYSTSVPYPYKYWGQGTQVTVSS	high polyreactivity
QVQLVESGGGLVQPGGSLRLSCAASGYTFWQYAMGWYRQAPGKERELVAAISGSGGRTYYADSVKGRFTISRDNAKNTVYLQMNSLKPEDTAVYYCAAPYLRYYLGWYDYWGQGTQVTVSS	high polyreactivity
QVQLVESGGGLVQAGGSLRLSCAASGLTFYYYVMGWYRQAPGKERELVAAISSSGGNTYYADSVKGRFTISRDNEKNTVYLQMNSLKPEDTAVYYCAAGQKRTLDNYWGQGTQVTVSS	high polyreactivity
